The experiment has as its target RBD domain derived from the Omicron strain (B.1.1.529 strain) (SARS-CoV-2 Omicron strain (B.1.1.529)) (UniProt P0DTC2). Put plainly: SPR (Biacore T200), as in Example 4: antibody on the chip, RBD as analyte.

Experimental findings from patent WO2023002944A1 are described below.

In the case of S309 (antibody), the Kd – broadly, the concentration at which binding is half-saturated – was 2.1 nM.
